According to US20150100046A1, “INTRAOCULAR DRUG DELIVERY DEVICE AND ASSOCIATED METHODS” (priority 2013, published 2015):

Test: Ocular tissue drug concentration by ELISA after implantation of loaded intraocular device
Assay type: in vivo, New Zealand white rabbits
Conditions: intraocular device loaded with Avastin implanted in lens capsule after lens extraction, 1 week post implantation
Description: Three intraocular devices were implanted into eyes of New Zealand white rabbits under general anesthesia after lens extraction (phacoemulsification technique). Two of the devices were loaded with Avastin® (bevacizumab) and one was loaded with the contrast agent gadolinium-labeled albumin (Galbumin™) as a control. Proper intraocular device position was verified by MRI as well as clinical examination.
The rabbits were sacrificed and the eyes are removed and assayed after 1 week post implantation. Bevacizumab (Avastin®) was detected by ELISA in the retina and vitreous at concentrations of 24-48 mcg/mL, and was not present in the control rabbit eye.

bevacizumab [Bevacizumab (Avastin®)]
concentration detected by ELISA in the retina and vitreous: 24 to 48 µg/mL
